Here are results for three sequences from PMC7910581.

The series has as its target T1, Nla28-DBD (Myxococcus xanthus (DK1622?)) (UniProt Q1DD46).
T1 sequence: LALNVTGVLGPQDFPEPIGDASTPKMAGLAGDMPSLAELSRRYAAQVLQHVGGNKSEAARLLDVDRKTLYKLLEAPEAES
Briefly: EMSA. The note with it: EMSA: 25 mM Tris acetate, 8.0 mM magnesium acetate, 10 mM KCl, 1 mM DTT, pH 8.0, 30 min at 30 C; 2 uM Nla28-DBD, 1 ng Cy5-DNA.
“GCTCGTGTCGCGTCCCTACATCCAGAACGCCGCTCGCAAGGCATTGGTCTCCGCCGTGAAGAGCATTGAGGATGCTCAGCAGGAGCTGGAGAGGACGCAGAAGCAGGAGGTGGAGTCGGCAGGCGCGGTCTCGCAGGCAGGGGGCGCGAAGTCCTCCGGCTAGTCAGGACTGTGCGAGGTCGTGTGGACGCTGTCCCTGT (double strand) [Cy5-P1286]”: the binding result was “binds”.

“GCGTCTTCTTGTCCGTACCGCGGAAGCGCAGCAGGTAGGGGTTGGCGTAGAAGATGTTGCCGGGCTCGCGCTTGCCCACCCAGAACGTCTCGGGGGCAATCTCCACCGGCACGAGGCGGAGGTCGGAGCTCTGGCTCGGGCTTGGGACTGGGGCGATGGTGCTGCTCATGGGCGCGGCGTTCCTTCCCTTTCGGGTGTAT (double strand) [Cy5-P1579]”: the binding entry is given as “binds”.

Consider “CAGCAGGCGCTCGAGGTCCTCAAGGTCAAGAAGTTCGAAAGCGGCATGGTGGTGGACCCCGTCACCATCGAACCGGAGGCCCCGCTGGGCCGCGCGCTGGAGCTGATGCGCCTTCACGGCGTGTCCGGCATCCCGGTGGTGAAGGGCCAGCGACTGGTGGGCATCGTCACCAGCCGCGACGTGCGCTTCGAGACCAACTT (double strand) [Cy5-P3778]”, for which the binding entry was “binds”.
